Assay results: patent US20190284299A1 (published 2019)

Molecular target: T1, recombinant human Trop-2 (Sino Biological, Cat. No: 10428-H08H) (human, UniProt P09758 27-274)
T1 chain: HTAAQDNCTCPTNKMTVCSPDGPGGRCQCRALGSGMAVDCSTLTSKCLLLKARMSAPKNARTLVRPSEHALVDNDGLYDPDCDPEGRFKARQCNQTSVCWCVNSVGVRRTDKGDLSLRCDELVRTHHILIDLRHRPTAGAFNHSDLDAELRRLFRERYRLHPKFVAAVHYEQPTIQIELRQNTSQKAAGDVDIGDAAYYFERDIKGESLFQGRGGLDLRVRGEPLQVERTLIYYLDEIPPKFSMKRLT
Assay: ELISA

Binder	EC50 [nM]
heterodimeric anti-Trop-2/anti-CD3-scFv bispecific antibody (bispecific antibody) heavy: not shown light: DIQLTQSPSSLSASVGDRVSITCKASQDVSIAVAWYQQKPGKAPKLLIYSASYRYTGVPDRFSGSGSGTDFTLTISSLQPEDFAVYYCQQHYITPLTFGAGTKVEIKRTVAAPSVFIFPPSDEQLKSGTASVVCLLNNFYPREAKVQWKVDNALQSGNSQESVTEQDSKDSTYSLSSTLTLSKADYEKHKVYACEVTHQGLSSPVTKSFNRGEC scFv: not shown	0.28
Anti-Trop-2 mAb (antibody, V domains shown) VH: VQLQQSGSELKKPGASVKVSCKASGYTFTNYGMNWVKQAPGQGLKWMGWINTYTGEPTYTDDFKGRFAFSLDTSVSTAYLQISSLKADDTAVYFCARGGFGSSYWYFDVWGQGSLVTVSS VL: DIQLTQSPSSLSASVGDRVSITCKASQDVSIAVAWYQQKPGKAPKLLIYSASYRYTGVPDRFSGSGSGTDFTLTISSLQPEDFAVYYCQQHYITPLTFGAGTKV	0.081
